Laboratory results published in patent US20160017037A1 (GlaxoSmithKline, published 2016).

Tests used:
[1] = target: T1, Recombinant cynomolgus macaque LAG-3 ECD-His6 (cynomolgus macaque, UniProt P18627 24-433 (human entry)); assay: SPR Biacore T100, antibody captured on Protein A, LAG-3 ECD-His6 analyte 0.0625-16 nM, 1:1 model, 37 C
T1 construct: In-house generated; also called cyno LAG-3
T1 chain: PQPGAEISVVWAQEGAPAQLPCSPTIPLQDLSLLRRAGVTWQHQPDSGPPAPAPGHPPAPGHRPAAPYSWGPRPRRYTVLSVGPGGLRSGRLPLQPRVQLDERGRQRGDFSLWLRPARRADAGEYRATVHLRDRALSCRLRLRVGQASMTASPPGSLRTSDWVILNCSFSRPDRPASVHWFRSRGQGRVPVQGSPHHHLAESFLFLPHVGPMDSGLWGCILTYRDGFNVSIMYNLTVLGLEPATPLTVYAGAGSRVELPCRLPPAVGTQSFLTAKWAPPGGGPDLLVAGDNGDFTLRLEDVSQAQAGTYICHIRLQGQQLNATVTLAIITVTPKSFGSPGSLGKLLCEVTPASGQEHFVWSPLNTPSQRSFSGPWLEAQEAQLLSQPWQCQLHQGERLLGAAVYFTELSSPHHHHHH
Description: (§1) The binding cross reactivity of anti-LAG-3 humanised antibodies for both cynomolgus macaque (cyno) and baboon recombinant LAG-3 ECD-His6 (SEQ ID NOs 52 and 53, respectively) was assessed using the Biacore™ T100 (GE Healthcare).
(§2) Protein A was immobilised on a CM5 chip by primary amine coupling. This surface was then used to capture the humanised antibodies. In-house generated recombinant cynomolgus macaque and baboon LAG-3 ECD-His6 were then passed over the captured antibodies and regeneration was carried out using 50 mM NaOH. LAG-3 ECD-His6 was passed over at 16, 4, 1, 0.25 and 0.0625 nM. The binding curves were double referenced with buffer injection (i.e. 0 nM) and the data was fitted to the T100 analysis software using the 1:1 model. The run was carried out at 37° C. using HBS-EP as the running buffer.

[2] = target: T2, Recombinant baboon LAG-3 ECD-His6 (baboon, UniProt P18627 24-433 (human entry)); assay: as above
T2 construct: In-house generated
T2 chain: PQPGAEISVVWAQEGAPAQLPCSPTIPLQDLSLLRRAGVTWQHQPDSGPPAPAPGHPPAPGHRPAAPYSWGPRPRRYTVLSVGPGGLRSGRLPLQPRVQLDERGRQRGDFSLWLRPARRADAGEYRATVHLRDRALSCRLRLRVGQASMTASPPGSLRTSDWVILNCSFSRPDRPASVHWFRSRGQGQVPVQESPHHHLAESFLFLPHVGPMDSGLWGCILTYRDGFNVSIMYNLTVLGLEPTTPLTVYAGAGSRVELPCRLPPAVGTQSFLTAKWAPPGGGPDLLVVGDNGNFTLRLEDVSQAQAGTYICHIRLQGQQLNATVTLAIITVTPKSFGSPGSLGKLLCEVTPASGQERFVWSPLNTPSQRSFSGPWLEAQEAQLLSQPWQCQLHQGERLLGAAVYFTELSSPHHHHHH
Description: as §1, §2

[3] = target: T2, Recombinant baboon LAG-3 ECD-His6; assay: SPR Biacore T100 (orthologues at 37 C, human at 25 C)
Description: (§3) Wild type fucosylated and afucosylated antibodies were compared for their ability to bind to recombinant human LAG-3 ECD with a C-terminal His6 (SEQ ID NO:51) using the Biacore™ T100 (GE Healthcare™). Protein A was immobilised on a CM5 chip by primary amine coupling. This surface was then used to capture the humanised antibodies. Recombinant human LAG-3 ECD-His6 was then passed over the captured antibodies at 32, 8, 2, 0.5 and 0.125 nM and regeneration was carried out using 50 mM NaOH. The binding curves were double referenced with buffer injection (i.e. 0 nM) and the data was fitted to the T100 analysis software using the 1:1 model. The run was carried out at 25° C., using HBS-EP as the running buffer.
as §2

[4] = target: T3, Recombinant human LAG-3 ECD-His6 (human, UniProt P18627 23-433); assay: SPR Biacore T100, Anova comparison of kd
T3 construct: also called LAG-3-His; recombinant human LAG-3-His
T3 sequence: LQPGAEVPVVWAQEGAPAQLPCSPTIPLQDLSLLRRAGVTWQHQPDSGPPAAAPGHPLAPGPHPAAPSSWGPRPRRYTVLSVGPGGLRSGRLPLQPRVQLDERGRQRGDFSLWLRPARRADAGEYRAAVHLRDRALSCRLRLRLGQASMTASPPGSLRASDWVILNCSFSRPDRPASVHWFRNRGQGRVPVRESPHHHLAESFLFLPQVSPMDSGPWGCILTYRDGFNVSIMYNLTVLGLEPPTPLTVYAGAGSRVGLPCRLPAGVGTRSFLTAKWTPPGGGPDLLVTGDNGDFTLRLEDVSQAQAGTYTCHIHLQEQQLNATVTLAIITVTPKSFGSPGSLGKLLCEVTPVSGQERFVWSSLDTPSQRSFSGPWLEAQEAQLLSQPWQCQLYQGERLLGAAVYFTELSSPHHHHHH
Description: as §3
(§4) In order to investigate the statistical significance of this kinetic data, this experiment was repeated 3 times with the same batch of the four antibodies and the chimeric control. KD, ka and kd parameters were each log (base 10) transformed prior to separate statistical analyses. For each parameter, a mixed model analysis of variance CAnova′) was performed on transformed data, including terms for Run (random block effect) and Antibody.
(§5) From the Anova, geometric means were predicted for each antibody, along with statistically plausible ranges (95% confidence intervals) for each mean. Planned comparisons of antibodies were performed within the Anova. […]

[5] = target: T3, Recombinant human LAG-3 ECD-His6; assay: SPR Biacore T100, Anova comparison of KD
Description: as §3, §4, §5

B1: IMP731 (antibody, human IgG1, kappa)
heavy: not shown
light: DIVMTQSPSSLAVSVGQKVTMSCKSSQSLLNGSNQKNYLAWYQQKPGQSPKLLVYFASTRDSGVPDRFIGSGSGTDFTLTISSVQAEDLADYFCLQHFGTPPTFGGGTKLEIKRTVAAPSVFIFPPSDEQLKSGTASVVCLLNNFYPREAKVQWKVDNALQSGNSQESVTEQDSKDSTYSLSSTLTLSKADYEKHKVYACEVTHQGLSSPVTKSFNRGEC
notes: Chimeric (murine variable domains, human IgG1/kappa constant regions); also called A9H12; chimeric antibody IMP731
B1 was tested, and the Kd [1] was 21 pM, the Kd [2] was 19 pM and the “fold improvement in affinity against human recombinant LAG-3 ECD-His6” value (shortened to “fold improvement in affinity”) [3] was about 100 fold.

B2: H5L7BW (antibody, human IgG1, kappa)
heavy: not shown
light: DIQMTQSPSSLSASVGDRVTITCKSSQSLLNPSNQKNYLAWYQQKPGKAPKLLVYFASTRDSGVPSRFSGSGSGTDFTLTISSLQPEDFATYYCLQHFGTPPTFGQGTKLEIKRTVAAPSVFIFPPSDEQLKSGTASVVCLLNNFYPREAKVQWKVDNALQSGNSQESVTEQDSKDSTYSLSSTLTLSKADYEKHKVYACEVTHQGLSSPVTKSFNRGEC
modifications: afucosylated: no fucose on the core carbohydrate structure attached to Asn297
notes: Same plasmids as H5L7, expressed in the BioWa POTELLIGENT (FUT8 knock-out CHO) cell line; also called afucosylated antibody H5L7BW; afucosylated H5L7
With B2 the Kd [1] was 21 pM, the Kd [2] was 24 pM and the “kd ratio against H5L7” value [4] was 1.12 ratio. The “KD ratio against H5L7” value [5] was 1.05 ratio and the “fold improvement in affinity” value [3] was 10 fold.

B3: H5L7 (antibody, human IgG1, kappa)
heavy: not shown
light: DIQMTQSPSSLSASVGDRVTITCKSSQSLLNPSNQKNYLAWYQQKPGKAPKLLVYFASTRDSGVPSRFSGSGSGTDFTLTISSLQPEDFATYYCLQHFGTPPTFGQGTKLEIKRTVAAPSVFIFPPSDEQLKSGTASVVCLLNNFYPREAKVQWKVDNALQSGNSQESVTEQDSKDSTYSLSSTLTLSKADYEKHKVYACEVTHQGLSSPVTKSFNRGEC
notes: Humanised IgG1/kappa of A9H12 (IMP731); also called fucosylated H5L7; non-ADCC enhanced variant H5L7
With B3 the Kd [1] was 17 pM, the Kd [2] was 22 pM and the “kd ratio against IMP731” value [4] was 0.155 ratio. For the same binder, the “KD ratio against IMP731” value [5] was 0.0774 ratio and the “fold improvement in affinity” value [3] was 10 fold.
